# According to the supplement of paper PMC10567573:
# B1: FBXO3 (parent)
# chain: GGFPIIRDQIFRYVHDPECVATTG
# B2: CCDC70 (parent)
# chain: FSFKVSRWMGLACFRSLAASSPSI
# Variants of: B1
# Assay: protein stability index of a GFP-peptide fusion (GPS, HEK-293T) (PSI 1-6); higher = more stable
# Conditions: c terminus: a fixed tail appended
# 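Further: lentivirally expressed fusions sorted by FACS into six bins by GFP to DsRed ratio, PSI derived from sequencing read proportions per bin multiplied by bin number.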
row,Variant,protein stability index
1,G1W,1.73
2,G1N,2.4
3,G1M,1.64
4,G1P,2.51
5,G1K,2.15
6,G1D,2.65
7,G1T,2.74
8,G1R,2.16
9,G1F,1.55
10,G1Q,2.15
11,G1V,1.79
12,G1L,1.64
13,G1H,2.02
14,G1C,1.21
15,G1I,2.05
16,G1A,2.29
17,G1S,2.01
18,G1E,2.6
19,G1Y,1.55
20,P4D,2.72
21,P4K,2.54
22,P4S,2.03

row,Variant,protein stability index
1,P4Q,1.75
2,P4L,2.39
3,P4R,2.21
4,P4A,1.66
5,P4T,1.67
6,P4G,2.33
7,P4F,2.3
8,P4Y,2.75
9,P4N,2.15
10,P4E,2.93
11,P4I,2.08
12,P4H,2.02
13,P4C,2.23
14,P4V,1.29
15,I5C,1.86
16,I5E,2.64
17,I5P,1.85
18,I5N,2.4
19,I5H,2.14
20,I5G,2.32
21,I5A,2.39
22,I5M,2.71

row,Variant,protein stability index
1,I5F,1.58
2,I5D,2.61
3,I5L,1.64
4,I5K,1.19
5,F3E,2.9
6,F3V,2.38
7,F3N,2.78
8,F3M,2.1
9,F3C,2.14
10,F3G,2.55
11,F3D,3.2
12,F3R,2.59
13,F3K,2.87
14,F3P,2.76
15,F3L,1.94
16,F3A,3.13
17,F3H,2.21
18,F3Y,1.57
19,F3T,3.17
20,F3I,2.29
21,F3W,2.28
22,F3Q,2.58

row,Variant,protein stability index
1,F3S,2.59
2,G2S,1.76
3,G2Y,1.78
4,G2V,2.5
5,G2E,1.97
6,G2N,2.28
7,G2A,1.82
8,G2L,1.86
9,G2D,3.02
10,G2T,2.19
11,G2C,1.51
12,G2I,2.2
13,G2F,2.03
14,G2W,2.87
15,G2M,1.68
16,G2R,2.41
17,G2P,2.38
18,G2Q,1.25
19,G2K,2.54
20,G2H,1.76

# Variants of: B2
# Assay: as above
# Conditions: c terminus: a fixed tail appended
row,Variant,protein stability index
1,S23Q,3.59
2,S23Y,2.1
3,S23H,1.65
4,S23K,2.68
5,S23L,4.22
6,S23T,2.67
7,S23V,2.53
8,S23D,3.88
9,S23F,3.09
10,S23N,3.56
11,S23C,2.6
12,S20R,4.31
13,S20I,3.96
14,S20V,2.6
15,S20H,1.81
16,S20C,3.42
17,S20F,4.72
18,S20T,2.31
19,S20A,3.7
20,S20M,2.2
21,S20L,3.27

row,Variant,protein stability index
1,S20G,2.51
2,S20D,3.1
3,S20Y,2.74
4,S20N,2.46
5,S20W,3.37
6,S20K,3.32
7,S20P,1.35
8,I24W,3.1
9,I24N,2.33
10,I24P,1.41
11,I24L,3
12,I24E,1.44
13,I24A,2.67
14,I24M,2.23
15,I24D,2.72
16,I24C,1.94
17,I24K,2.12
18,I24Y,3.49
19,I24F,2.56
20,I24Q,2.38
21,I24G,2.36

row,Variant,protein stability index
1,I24S,2.06
2,S21K,2.57
3,S21M,3.02
4,S21F,3.31
5,S21N,2.04
6,S21E,3.18
7,S21G,2.62
8,S21P,3.96
9,S21Q,2.23
10,S21D,2.8
11,S21A,1.99
12,S21Y,1.82
13,S21W,2.85
14,S21C,2.05
15,S21I,3.37
16,S21L,3.55
17,S21R,1.75
18,A19R,3.39
19,A19T,3.93
20,A19W,3.71
21,A19S,3.28

row,Variant,protein stability index
1,A19Y,3.36
2,A19Q,2.32
3,A19V,3.78
4,P22H,1.85
5,P22C,2.36
6,P22V,2.95
7,P22M,3.36
8,P22R,2.46
9,P22A,1.68
10,P22Y,2.86
11,P22D,2.97
12,P22E,3.78
13,P22K,2.38
14,P22T,3.71
15,P22Q,3.8
16,P22N,3.22
17,P22F,2.51
18,P22W,3.4
